Test results taken from publication PMC6954417, “DSS1 interacts with and stimulates RAD52 to promote the repair of DSBs”.

How the values were obtained:
RAD52 (untagged, pET11a) = target: T1, RAD52 (untagged, pET11a) (Homo sapiens, UniProt P43351 1-418); assay: stopped-flow fluorescence; 0.05-2.0 uM RAD52; smaller amplitude, lower affinity than with DSS1; sign change at ~0.5 uM; ssDNA EMSA: 30 mM Tris-acetate pH 7.5, 1 mM DTT, RT, 0.1% glutaraldehyde; FRET: same buffer + 0.1 mg/ml BSA, 25 C; dsDNA EMSA: 30 mM KPi pH 7.4, 1 mM DTT, 0.01; settings: protein: recombinant; tags: none; label: Cy3; single strand
T1 sequence: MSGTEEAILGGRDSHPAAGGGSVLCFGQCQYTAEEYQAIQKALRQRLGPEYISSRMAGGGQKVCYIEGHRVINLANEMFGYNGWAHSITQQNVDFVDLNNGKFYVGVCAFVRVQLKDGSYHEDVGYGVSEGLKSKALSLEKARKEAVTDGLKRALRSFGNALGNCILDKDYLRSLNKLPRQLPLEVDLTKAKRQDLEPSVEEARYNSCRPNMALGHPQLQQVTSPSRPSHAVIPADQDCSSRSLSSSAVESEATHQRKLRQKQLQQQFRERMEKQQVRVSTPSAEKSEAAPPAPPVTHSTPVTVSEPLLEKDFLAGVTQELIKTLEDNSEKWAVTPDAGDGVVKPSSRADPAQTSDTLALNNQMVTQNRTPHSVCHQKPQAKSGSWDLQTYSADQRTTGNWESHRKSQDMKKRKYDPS

[1] = target: RAD52 (untagged, pET11a);DSS1 (Homo sapiens;Homo sapiens, UniProt P43351;P60896 1-418;1-70, |); assay: stopped-flow fluorescence; 1:1 complex; sign change at 0.1-0.25 uM; ssDNA EMSA: 30 mM Tris-acetate pH 7.5, 1 mM DTT, RT, 0.1% glutaraldehyde; FRET: same buffer + 0.1 mg/ml BSA, 25 C; dsDNA EMSA: 30 mM KPi pH 7.4, 1 mM DTT, 0.01; settings: protein: recombinant;recombinant; tags: none;GST removed by thrombin; label: Cy3; single strand
Sequence of RAD52 (untagged, pET11a);DSS1 (P60896 whole entry, one chain of several): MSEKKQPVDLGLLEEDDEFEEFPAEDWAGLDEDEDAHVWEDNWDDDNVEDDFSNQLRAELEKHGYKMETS

TTTTTTTTTTTTTTTTTTTTTTTTTTTTTTTTT (ssDNA) [Cy3-dT33 (pR1255)]: binds (RAD52 (untagged, pET11a)); binds [1].
